{"source": "paper PMC9891822", "about": "“Cysteine Pathogenic Variants of PMM2 Are Sensitive to Environmental Stress with Loss of Structural Stability” (Oxidative Medicine and Cellular Longevity, 2023)"}
{"biological_target": "the molecule itself", "experiment": "SEC; Superdex 75 10/300GL on an AKTA purifier; 100 uL of 0.2 mg/mL protein injected; 0.6 mL/min; 20 mM Na2HPO4, 150 mM NaCl, 1 mM EDTA; mass estimated from the elution volume"}
{"protein": "Phosphomannomutase2 (PMM2) wild type (enzyme, human, UniProt O15305-1 1-246, looked up, PMM2, human, open reading frame NM_000303, primers from the start codon to the stop codon; Cloned into pET28a(+) 'containing 6x His-tag'; also called PMM2-WT; WT; source: E. coli BL21 (DE3), purified (Ni-NTA, Superdex 75)) MAAPGPALCLFDVDGTLTAPRQKITKEMDDFLQKLRQKIKIGVVGGSDFEKVQEQLGNDVVEKYDYVFPENGLVAYKDGKLLCRQNIQSHLGEALIQDLINYCLSYIAKIKLPKKRGTFIEFRNGMLNVSPIGRSCSQEERIEFYELDKKENIRQKFVADLRKEFAGKGLTFSIGGQISFDVFPDGWDKRYCLRHVENDGYKTIYFFGDKTMPGGNDHEIFTDPRTMGYSVTAPEDTRRICELLFS", "stoichiometry N": 2}
{"protein": "PMM2 Cys241Ser (C241S) variant (enzyme, human, UniProt O15305-1 1-246, looked up, PMM2, human, open reading frame NM_000303, with the pathogenic variant C241S (c. G722C) found in patients; Cloned into pET28a(+) 'containing 6x His-tag'; also called PMM2-C241S; source: E. coli BL21 (DE3), purified (Ni-NTA, Superdex 75)) MAAPGPALCLFDVDGTLTAPRQKITKEMDDFLQKLRQKIKIGVVGGSDFEKVQEQLGNDVVEKYDYVFPENGLVAYKDGKLLCRQNIQSHLGEALIQDLINYCLSYIAKIKLPKKRGTFIEFRNGMLNVSPIGRSCSQEERIEFYELDKKENIRQKFVADLRKEFAGKGLTFSIGGQISFDVFPDGWDKRYCLRHVENDGYKTIYFFGDKTMPGGNDHEIFTDPRTMGYSVTAPEDTRRISELLFS", "stoichiometry N": 2}
{"protein": "PMM2 Cys9Tyr (C9Y) variant (enzyme, human, UniProt O15305-1 1-246, looked up, PMM2, human, open reading frame NM_000303, with the pathogenic variant C9Y (c. G26A) found in patients; Cloned into pET28a(+) 'containing 6x His-tag'; also called PMM2-C9Y; source: E. coli BL21 (DE3), purified (Ni-NTA, Superdex 75)) MAAPGPALYLFDVDGTLTAPRQKITKEMDDFLQKLRQKIKIGVVGGSDFEKVQEQLGNDVVEKYDYVFPENGLVAYKDGKLLCRQNIQSHLGEALIQDLINYCLSYIAKIKLPKKRGTFIEFRNGMLNVSPIGRSCSQEERIEFYELDKKENIRQKFVADLRKEFAGKGLTFSIGGQISFDVFPDGWDKRYCLRHVENDGYKTIYFFGDKTMPGGNDHEIFTDPRTMGYSVTAPEDTRRICELLFS", "stoichiometry N": 2}
